Experimental data as given in patent publication US20220380442A1 (published 2022).

B1: SNV-30 (antibody, V domains shown)
VH: QLQLQESGSRLVKSSETLSLTCAVSGGAITSGRNTWSWIRQPPGKGLEWIGFIYYSGSTYSNPITYSSPSLKSRVTISLDTSKNQFSLKLNSVTAADTAVYYCARAKPSNLNFYYYGMDVWGQGTTVTVSS
VL: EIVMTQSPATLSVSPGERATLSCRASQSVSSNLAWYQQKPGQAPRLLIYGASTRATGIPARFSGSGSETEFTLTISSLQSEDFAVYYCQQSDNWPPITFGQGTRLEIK
B2: SNV-36 (antibody, V domains shown)
VH: QVQLVESGGGVVQPGRSLRLSCAASGFRFSSYAMHWVRQAPGKGLEWVATIWFDGTNEYYGDSAKGRFTISRDNSMSTLYLQMNSLRVEDTAVYYCARPANGYSDYYYGMDVWGQGTTVTVSS
VL: QSALTQPASVSGSPGQSITISCTGTSSDVGTYNLVSWYQQHPGKAPKLMIFEVNKRPSGVSYRFSGSKSGNTASLTISGLQAEDEADYYCCSYADNRTPFLFGTGTKVTVLG
B3: SNV-21 (antibody, V domains shown)
VH: QVQLVESGGGVVQPGRALRLSCAASGFTFSSYGMHWVRQAPGKGLEWVAVVWNDGGNKYYADSVKGRFTISRDNSKNTLYLQMNSLRAEDTAVYFCARDGYYVSSGYHPLRYYYYYMDVWGKGTTVAVSS
VL: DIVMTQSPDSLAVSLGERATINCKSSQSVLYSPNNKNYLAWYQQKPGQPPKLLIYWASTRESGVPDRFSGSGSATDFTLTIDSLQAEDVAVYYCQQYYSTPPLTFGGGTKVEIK
B4: SNV-42 (antibody, V domains shown)
VH: EVQLVESGGGLVQPGGSLRLSCAASGFTFSTYEMNWVRQAPGKGLEWISYIRSSGSTVYYADSVKGRFTISRDNAKNLLYLQMNSLRAGDTAVYYCARIPGGYTGYFDYWGQGALVTVSS
VL: QSVLTQPPSVSGAPGQRVTISCTGSSSNIGAGYYVHWYQQLPGTVPKLLIYGNNNRPSGVPDRFSGSKSGTSASLAITGLQTEDEADYYCQSYDSSLSGWVFGGGTKLTVL
B5: SNV-39 (antibody, V domains shown)
VH: QEQLEESGGGVVQPGRSLTLSCAASGFTFRSYDMHWVRQAPGKGLEWVALISYDGRNKHYGDSVKGRFTISRDNSKNTLYLHLSSLRAEDTSVYYCARGADNGLFTDSWGQGTLVIVSS
VL: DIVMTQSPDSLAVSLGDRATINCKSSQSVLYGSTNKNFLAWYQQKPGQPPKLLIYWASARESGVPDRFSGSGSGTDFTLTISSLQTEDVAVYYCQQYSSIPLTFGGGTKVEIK
B6: SNV-66 (antibody, V domains shown)
VH: QVRLVESGGGVVQPGRSLRLSCAASGFTFRSYGMHWVRQAPGKGLEWVALISLDGSEKHYADSVKGRLTISRDNSKNMLYLQMNNLRVEDTAVYYCAKDRPYSWRDVLDYWGQGTLVTVSS
VL: DIQMTQSPSSLSASVGDRVTITCRASRDIHTSLNWYQHTPGKAPELLIYAASTLEMGVPSRFSGSGSGTDFTFTISSLQPEDIATYYCQQYDELPLTFGGGTKVEMK
B7: SNV-24 (antibody, V domains shown)
VH: EVQLLESGGGLIQSGGSLRLSCVVSGIDFSNYAMTWVRHAPGKGLEWISTISGSGDTTNYADSAKGRFTISRDNSRNTLFVRINSLRAEDTAIYYCAKTMGPVSGQYAFDIWGQGTKVTVSS
VL: SYELTQPPSVSVSPGQTATITCSGDNLGNKFASWYQQKPGLSPVLVIYQDKKRPSGIPERFSGSNSGNTATLTISGTQAMDEADYFCQAWHSGSVFGGGTKLTVL
B8: SNV-53 (antibody, V domains shown)
VH: EVQLVQSGAEVKTPGESLKISCKGSGYRFYTYWIAWVRQMPGKGLEWMGIIYPGDSDPRYSPSFQGQVTISADKSISTAYLQWSSLKASDTAMYYCVRVQGTMLDYWGQGTLVTVSS
VL: QSVLTQPPSVSGAPGQSVTISCSGSSSNIGAGYDVHWYQQLLGRAPKLLIHGNSNRPSGVPDRFSGSKSGTSGSLAITGLQSEDEADYYCQSYDISLSGWVFGGGTKLTVL
B9: SNV-50 (antibody, V domains shown)
VH: EMQLLESGGGLIQPGESLRLSCAGSGFTFRNYAMSWVRQAPGKGLQWVSAISASGGITHYADSVKGRFTISRDNSKNTLFLQMNSLRAEDTAVYYCAKGEIMRDTGYHDDAFDVWGQGKMVTVSS
VL: DIQLTQSPSFLSASVGDRVTITCRASQGISSYLVWYQQKPGEAPKLLIYTASTLQSGVPSRFSGSGSGTEFTLTISSLQPEDFATYHCQQVESYPYSFGQGTKLEIK
B10: SNV-27 (antibody, V domains shown)
VH: QVQLVQSGAEVKKPGASVRVSCKAYGYSFNDYFMHWVRQAPGQGLEWMGRVKPSTGGTRYAQKFQGRVTMTLDTSTSTAYVELSSLSSDDTAVYFCARKLGPLGDCSSSSCYSALDVWGQGTMVTVSS
VL: DIQMTQSPSTLSASVGDRVTITCRASESISNWLAWYQQKPGKAPKLLISKASSLESGVPSRFSGSGSGTEFTLTIGSLQPDDFATYYCQQYNTYSWTFGQGTKVDIK
B11: SNV-56 (antibody, V domains shown)
VH: EVQLVESGGRLVRPGGSLRLSCAASGFTFSHYNMNWVRQAPGKGLEWVSSINSRNGYTYYADSVKGRFTISRDNAKNSLYLQMNSLRPEDTAVYYCARDPPLYSGYDLGYYYYGMDVWGQGTTVTVSS
VL: DIQMTQSPSTLSAFVGDRVTITCRANQNISKWLAWYQQKPGKAPNLLIHKASSLESGVPSRFSGSGSGTEFTLTISSLQPDDFATYSCQQYNSYPWAFGQGTRVEIK
B12: SNV-68 (antibody, V domains shown)
VH: QVQLQESGPGLVKPSGTLSLTCLVSGGSIGSSHWWSWVRQSPGKGLEWFGEIHHTESTNYNPSLKSRVTITMDKSKNQFYLKLTSVTAADTAVYYCARAGATFAEPFSLWGQGTMVTVSP
VL: DIQMTQSPSTLSASVGDRVTITCRAGQSVTNWLAWYQQKPGKAPKLLIYKASILASGVPSRFSGSGSGTEFTLTISSVQPDDSAVYYCQQYKSHRTFGQGTKVEIK
B13: SNV-32 (antibody, V domains shown)
VH: QVQLVQSGAEVKKPGSSVKVSCRASGGTFRSYSISWVRQAPGQGLEWMGDIIPIFSTTNYAQKFQGRVTITADEATSTAYMELSSLRSDDTAVYYCARPSNLLNWFDPWGQGTLVTVSS
VL: EIVMTQSPATLSVSPGERATLSCRASQSVNSNLVWYQQKPGQAPRLLIYGASTRATGIPARISGSGSGTEFTLTISSLQSEDFAVYYCQQYDNRPQTFGQGTKVEIK
B14: SNV-67 (antibody, V domains shown)
VH: QVQLVQSGAEVKKPGASVRVSCKASGYTFTAYFMNWVRQAPGQGLEWMGRINPISGDTNFAQNFQGRVTMTRDTSITTVYMELNRLTSDDTAVYYCARVRSGYSYIDFWGQGTLVTVAS
VL: SYDLTQPPSVSVSPGQTARITCSGDALSNQYAYWYQQRPGQAPVVVIYKYSERPSGIPERFSGSSSGTTVTLTISGVQAEDEADYYCQSADRLGTYWVFGGGTKLTVL
B15: SNV-57 (antibody, V domains shown)
VH: QVQLVESGGGVVQPGRSLRLSCAASGFTFSSYAMHWVRQAPGKGLEWVALISLDGFNTYYPDSVKGRFTISRDSSKNTLFLQLNSLRIEDTAVYYCVKDRGPTGSGSYGMDVWGQGTTVTVSS
VL: SYELTQPPSVSVSPGQTASITCSGDKLGNKFACWYQQKPGQSPVLVIHQDKKRPSGIPERFSGSNSGNTATLTISGTQAVDEADYYCQAWDSSNVVFGGGTKLTVL
B16: SNV-3 (antibody, V domains shown)
VH: QVQLQQSGPGLVKPSQTLSLTCAISGDSVSSNSAAWNWIRQSPSRGLEWLGRTYYRSKWYNDYAVSVKSRITINPDTSKNQFSLQMNSVTPEDTAVYYCARDRRKLEPPPFSYYYYGLDVWGQGTTVTVSS
VL: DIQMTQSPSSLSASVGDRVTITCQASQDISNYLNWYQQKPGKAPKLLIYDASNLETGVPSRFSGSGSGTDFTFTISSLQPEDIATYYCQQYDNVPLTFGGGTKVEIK
B17: SNV-25 (antibody, V domains shown)
VH: QVQLQESGPGLVKPSGTLSLTCAVSGGSISSSNWWSWVRQPPGKGLEWIGEIYHSGSTNYNPSLKSRATISVDKSKNQFSLKLSSVTAADTAFYYCARARGEWLAHFDYWGQGTLVTVSS
VL: DIQMTQSPSTLSASVGDRVTITCRASQSISRWLAWYQQKPGKAPKLLIYKASSLESGVPSRFSGSGSGTEFTLTISSLQPDDFAIYYCQQYNTDKTFGQGTKVEIK
B18: SNV-65 (antibody, V domains shown)
VH: QVQLQESGPGLVKPSQTLSLTCTVSGGSISSGGYFWSWIRQHPGKGLEWIGYIYYSGSTYYNPSLKSRVTISIDTSKIQFSLKLTSVTAADTAVYYCARDVGGFDIWGQGTMVTVSS
VL: DIQMTQSPSSLSASIGDRVTITCQASQDINKYLNWYQQKPGKAPKVLIYDASNLETGVPSRFSGSGSGTDFTFTISSLQPEDVATYYCQQYENLPRTFGQGTKVEIK
B19: SNV-45 (antibody, V domains shown)
VH: ELQLVESGGGLIRPGGSLRLSCTAAGFTFSNYNMNWVRQAPGKGLDWVSYISSSGGTTIYADSVKGRFTISRDNAKDSLYLQMNSLRDDDTAIYYCVRGRGQLATHFDYWGQGTLVTVSS
VL: ESVLTQFPDFQSVTPKEKVTITCRASQSIHINLHWYQQKPHQSPKLLIKYASQSIAGVPSRFSGSGSGTEFTLTINGLEAEDAATYYCHQSNSLPWTFGQGTKVEIK
B20: SNV-62 (antibody, V domains shown)
VH: QVLLVQSGAEVKKPGASVKVSCKASGYTFTSYFIHWVRQAPGQGLEWMGMINPISGNTNYAQKFQGRVTMTRDTSTRTVYMQLSSLTFEDTAVYSCVRWTTVPSSFDFWGQGTLVTVSS
VL: SYELTQPPSVSVSPGQTARITCSGDALPNQYVNWYQQKPGQAPVLMMFKDNQRPSGIPERFSGSRSGTTVTLSISGVQAEDEADYHCQSADRTATSVAFGGGTKLTVL
B21: ANDV-44 (antibody, V domains shown)
VH: QVQLVQSGAEVRKPGASVKVSCKASGYTFTSNGVSWVRQAPGQGLEWMGWIAGYDGYTNYTQKFQGRVTMTTDTSTTTVYMELRSLRFDDTAVYYCARDEGLHNWKFNAMDVWGQGTTVIVSS
VL: EIVLTQSPGTLSLSPGERATLSCRASQSVSSSYLAWYQQKPGQAPRLLMSETSRRATGIPDRFSGSVSGTDFILTINRVDPEDFAVYYCQQYSSPPWTFGQGTKVEIK
B22: ANDV-54 (antibody, V domains shown)
VH: EVQLVESGGGVVQPGRSLRLSCAASGFTFSPYGMHWVRQAPGKGLEWVAVVWYDGNNKYYADSVKGRFTISRDNSKNTLYLQMNSLRAEDTAVYYCARENTPTYNSGYYFDYWGQGTLVTVSS
VL: QSALTQPASVSGSPGQSITISCTGTSSDVGSYDLVSWYQQHPGKAPKLIIYEGSKRPSGVSNRFSGSKSGNTASLTISGLQAEDEADYYCCSYAGSSTWVFGGGTKVTVL
B23: ANDV-12 (antibody, V domains shown)
VH: EVQLVESGGGLVQPGGSLRLSCAASGFAFSSYWMTWVRQAPGKGLEFVANIKYDASEKYYVDSVKGRFTISRDNGRNSFYLQMNSLRAEDTAVYYCAVPGPGYSFAYDYWGQGTQVTVSS
VL: DIQMTQSPSSLSASVGDRITITCRASQSVGTYLNWYQQKPGKAPKLLIYEASSLQSGVPSRFSGSGSGTDFTLTISRLQPEDFATYSCQQSDIPPWTFGQGTKVEIK

Target: T1, Sin Nombre virus (SNV) glycoproteins Gn and Gc displayed on the surface of Expi293F cells transfected with … (Sin Nombre virus)
Experiment: flow

| Binder | EC50 |
| --- | --- |
| B1 | 5.5 ng/mL |
| B2 | 10 ng/mL |
| B3 | 20 ng/mL |
| B4 | 5.9 ng/mL |
| B5 | 14 ng/mL |
| B6 | 7.7 ng/mL |
| B7 | 7.2 ng/mL |
| B8 | 3.5 ng/mL |
| B9 | 5.2 ng/mL |
| B10 | 11 ng/mL |
| B11 | 66 ng/mL |
| B12 | 6.5 ng/mL |
| B13 | 14 ng/mL |
| B14 | 15 ng/mL |
| B15 | 6 ng/mL |
| B16 | 5.6 ng/mL |
| B17 | 7.2 ng/mL |
| B18 | 3.4 ng/mL |
| B19 | 9.9 ng/mL |
| B20 | 2.6 ng/mL |

Target: T1, Sin Nombre virus (SNV) glycoproteins Gn …
Experiment: flow
Remark: another data set of the same source

| Binder | EC50 |
| --- | --- |
| B21 | 1090 ng/mL |
| B22 | 3670 ng/mL |
| B23 | 16 ng/mL |
